Our source for the neutralization, 50% inhibitory concentration, neutralization ID50 and Mab ID50 (neutralization) values is US20090232830A1.

Holding throughout (assay): cell-based or functional assay
The target in experiment [1] is 14/00/4 envelope protein (HIV-1).
Experiment [2] addresses 24/00/4 envelope protein (HIV-1).
In experiment [3] the target is 24/008 envelope protein (HIV-1).
For experiment [4], the target named is 93BR029 envelope protein (HIV-1).
The target of experiment [5] is CA1 envelope protein (HIV-1).
For experiment [6], the target named is GXE-14 envelope protein (HIV-1).
For experiment [7], the target named is LY109 envelope protein (HIV-1).
For experiment [8], the target named is MACS#4 envelope protein (HIV-1).
Experiment [9] concerns the target NYU1423 envelope protein (HIV-1).
Experiment [10] concerns the target R2 envelope protein (HIV-1).
Experiment [11] deals with VI1249 envelope protein (HIV-1).
For experiment [12], the target named is VI1273 envelope protein (HIV-1).
The target in experiment [13] is VI1399 envelope protein (HIV-1).
Experiment [14] deals with VI1793 envelope protein (HIV-1).
The target in experiment [15] is VI423 envelope protein (HIV-1).
Experiment [16] has as its target VI843 envelope protein (HIV-1).
In experiment [17] the target is 14/00/4 (A662) mutant Env (HIV-1).
Experiment [18] addresses LY109(N662T) mutant Env (HIV-1).
Experiment [19] deals with NYU1026 (T662) mutant Env (HIV-1).
The target of experiment [20] is NYU1026 envelope protein (HIV-1).
The target in experiment [21] is NYU1423 (T662) mutant Env (HIV-1).

For the substance “two-domain soluble CD4 (from UniProt P01730 26-208) (receptor)”, the neutralization, 50% inhibitory concentration in [1] is 0.59 µg/mL; in experiment [2], over 50 µg/mL; in [3], 4.69 µg/mL; in [4], under 0.39 µg/mL; in [5] it was under 0.39 µg/mL; in experiment [6], 9.34 µg/mL. For the same substance, the neutralization, 50% inhibitory concentration in experiment [7] was over 25 µg/mL; in experiment [8] it was 1.56 µg/mL; in experiment [9], 25 µg/mL; in experiment [10], 0.78 µg/mL; in experiment [11], 3.13 µg/mL; in experiment [12] it was over 50 µg/mL. Besides, the neutralization, 50% inhibitory concentration in experiment [13] was 6.25 µg/mL; in [14], 25 µg/mL; in experiment [15] it was 50 µg/mL; in experiment [16], over 50 µg/mL.
2G12 (antibody): the neutralization, 50% inhibitory concentration was over 50 µg/mL in experiment [1]; over 50 µg/mL in [2]; 0.78 µg/mL in experiment [3]; 18.8 µg/mL in experiment [4]; over 50 µg/mL in [5]; over 50 µg/mL in [6]. Further, the neutralization, 50% inhibitory concentration in experiment [7] is over 25 µg/mL; in experiment [8] it was 4.69 µg/mL; in experiment [9] it was 25 µg/mL; in [10], over 50 µg/mL; in experiment [11] it was over 50 µg/mL; in [12], 9.38 µg/mL. Further, the neutralization, 50% inhibitory concentration in experiment [13] worked out at 50 µg/mL; in experiment [14], 6.25 µg/mL; in experiment [15], 25 µg/mL; in [16], 6.25 µg/mL.
Regarding Mab 2F5 (antibody), the neutralization ID50 turned out to be 6.25 µg/mL in [17]; 0.45 µg/mL in experiment [1]; 0.31 µg/mL in [19]; 3.13 µg/mL in experiment [20]; 10.4 µg/mL in experiment [21]; 17.7 µg/mL in [9]. The neutralization, 50% inhibitory concentration in experiment [1] is under 0.39 µg/mL; in experiment [2], 1.17 µg/mL; in [3], over 50 µg/mL; in [4], 0.39 µg/mL; in experiment [5] it was over 12.5 µg/mL; in [6], 3.13 µg/mL. Also, the neutralization, 50% inhibitory concentration in experiment [7] stood at 6.64 µg/mL; in experiment [8], 3.13 µg/mL; in experiment [9] it was 25 µg/mL; in experiment [10], 0.78 µg/mL; in [11] it was 0.98 µg/mL; in [12] it was 3.13 µg/mL. In addition, the neutralization, 50% inhibitory concentration in experiment [13] is 1.56 µg/mL; in experiment [14], 1.17 µg/mL; in experiment [15] it was 1.96 µg/mL; in experiment [16], over 50 µg/mL. Further, the Mab ID50 (neutralization) in experiment [7] is 3.1 µg/mL; in experiment [18], 0.39 µg/mL; in experiment [21], 12.5 µg/mL; in experiment [9], 25 µg/mL.
With huMab IgG1 b12 (antibody), the neutralization, 50% inhibitory concentration in experiment [1] is over 100 µg/mL; in experiment [2], over 100 µg/mL; in experiment [3], over 100 µg/mL; in experiment [4] it was over 100 µg/mL; in experiment [5] it was over 100 µg/mL; in experiment [6] it was 25 µg/mL. Moreover, the neutralization, 50% inhibitory concentration in experiment [7] was 100 µg/mL; in experiment [8], 1.56 µg/mL; in experiment [9], over 100 µg/mL; in [10], 25 µg/mL; in [11], 1.56 µg/mL; in experiment [12], 9.38 µg/mL. Further, the neutralization, 50% inhibitory concentration in experiment [13] was 0.78 µg/mL; in experiment [14] it was over 100 µg/mL; in experiment [15] it was 31.2 µg/mL; in [16], 50 µg/mL.
In the case of Z13 (antibody), the neutralization, 50% inhibitory concentration in experiment [1], in experiment [2], in experiment [3], in experiment [4], in [5] and in experiment [6] was over 25 µg/mL throughout. Also, the neutralization, 50% inhibitory concentration in experiment [7], in [8], in [10], in experiment [11], in [12] and in experiment [13] was over 25 µg/mL in each case. Moreover, the neutralization, 50% inhibitory concentration in experiment [14], in experiment [15] and in experiment [16] was over 25 µg/mL each time.
Take X5 (antibody): the neutralization, 50% inhibitory concentration was over 25 µg/mL in [1]; over 25 µg/mL in [2]; over 25 µg/mL in experiment [3]; under 25 µg/mL in experiment [4]; over 25 µg/mL in [5]; over 25 µg/mL in [6]. In addition, the neutralization, 50% inhibitory concentration in experiment [7] was over 25 µg/mL; in [8] it was 25 µg/mL; in experiment [9] it was 25 µg/mL; in [10] it was under 6.25 µg/mL; in [11], 25 µg/mL; in experiment [12], over 25 µg/mL. In addition, the neutralization, 50% inhibitory concentration is under 25 µg/mL in [13], over 25 µg/mL in [14], under 6.25 µg/mL in [15] and over 25 µg/mL in [16].
Turning to Mab 4E10 (antibody), the neutralization ID50 in experiment [17] was found to be 9.34 µg/mL; in experiment [1], 0.9 µg/mL; in experiment [19], 0.78 µg/mL; in [20], 10.4 µg/mL. Further, the neutralization, 50% inhibitory concentration was determined as 1.96 µg/mL in experiment [1]; 3.91 µg/mL in [2]; 25 µg/mL in [3]; 0.39 µg/mL in experiment [4]; 12.5 µg/mL in experiment [5]; 13.3 µg/mL in experiment [6]. For the same substance, the neutralization, 50% inhibitory concentration in [7] stood at 18.8 µg/mL; in experiment [8], 7.82 µg/mL; in experiment [9], 25 µg/mL; in experiment [10], 3.13 µg/mL; in experiment [11], 0.98 µg/mL; in [12] it was 6.25 µg/mL. The neutralization, 50% inhibitory concentration amounted to 3.13 µg/mL in [13], 3.13 µg/mL in experiment [14], 6.25 µg/mL in [15] and 12.5 µg/mL in [16]. Besides, the Mab ID50 (neutralization) amounted to 12.5 µg/mL in experiment [7], 0.78 µg/mL in [18], 12.5 µg/mL in [21] and 25 µg/mL in [9].
